Consider one substance from publication PMC4773887.

Holding throughout (experiment): EMSA
What all share (settings): EMSA: 10 fmol DNA, 300 uM ddGTP, 3 mM dCTP; 6% native PAGE in 0.5x TBE, 35 min, 180 V; binding buffer, salt, pH and temperature not stated (ref 59)
(Mobility shift assays separate free from complexed probe on a gel.)

Data set [1] concerns HsPOLγA Q1102A (pol-);HsPOLγB WT (Homo sapiens;Homo sapiens).
Data set [2] has as its system HsPOLγA D274A (exo-);HsPOLγB WT (Homo sapiens;Homo sapiens).
Data set [3] concerns HsPOLγA WT;HsPOLγB WT (Homo sapiens;Homo sapiens).
The test system of data set [4] is HsPOLγA H1134A (pol-);HsPOLγB WT (Homo sapiens;Homo sapiens).

Usually Kd stands for the equilibrium constant for the complex coming apart. In the case of EMSA primer-template, the Kd in data set [1] was 3.8 nM; in data set [2], 2.8 nM; in data set [3], 5.5 nM; in data set [4], 3.5 nM.
